Laboratory results taken from publication PMC7367176, “Grønning Alexander Gulliver Bjørnholt Department of Biochemistry and Molecular Biology, University of Southern Denmark, 5230 Odense M, Denmark”.

Experiments:
[1] = biological target: T1, SRSF1 (UniProt Q07955 1-248); test: SPR imaging; SPRi (IBIS MX-96): 10 mM HEPES/KOH pH 7.9, 150 mM KCl, 10 mM MgCl2, 0.075% Tween-80; 6.25-400 nM protein over immobilized biotinylated RNA; 20 mg/ml BSA block; conditions: protein: recombinant; label: 3' biotin
T1 sequence (Q07955 whole entry): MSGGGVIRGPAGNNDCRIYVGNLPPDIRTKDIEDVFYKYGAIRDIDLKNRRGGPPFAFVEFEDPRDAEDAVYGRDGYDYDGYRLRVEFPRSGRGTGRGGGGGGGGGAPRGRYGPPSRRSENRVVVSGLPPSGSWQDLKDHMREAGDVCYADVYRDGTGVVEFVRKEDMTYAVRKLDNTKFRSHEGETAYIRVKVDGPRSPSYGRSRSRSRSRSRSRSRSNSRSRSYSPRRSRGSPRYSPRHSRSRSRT

[2] = biological target: T2, hnRNP A1 (UniProt P09651 1-372); test: SPR imaging; 1:2 biphasic fit, primary Kd; fitted maximum higher than SMN1 (1260 vs 885); SPRi (IBIS MX-96): 10 mM HEPES/KOH pH 7.9, 150 mM KCl, 10 mM MgCl2, 0.075% Tween-80; 6.25-400 nM protein over immobilized biotinylated RNA; 20 mg/ml BSA block; conditions: protein: commercial; label: 3' biotin
T2 sequence (P09651 whole entry): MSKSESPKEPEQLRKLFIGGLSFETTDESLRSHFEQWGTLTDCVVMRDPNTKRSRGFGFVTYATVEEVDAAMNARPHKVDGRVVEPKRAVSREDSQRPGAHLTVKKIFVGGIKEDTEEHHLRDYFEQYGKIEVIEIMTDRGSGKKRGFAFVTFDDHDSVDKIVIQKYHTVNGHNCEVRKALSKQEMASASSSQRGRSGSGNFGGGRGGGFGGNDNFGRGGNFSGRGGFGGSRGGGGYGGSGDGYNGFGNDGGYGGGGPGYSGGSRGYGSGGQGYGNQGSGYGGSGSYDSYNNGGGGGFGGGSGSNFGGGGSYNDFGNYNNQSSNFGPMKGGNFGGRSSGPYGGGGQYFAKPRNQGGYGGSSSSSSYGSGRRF

[3] = biological target: TDP-43 (UniProt Q13148 1-414); test: SPR imaging; pronounced increase vs wt; SPRi (IBIS MX-96): 10 mM HEPES/KOH pH 7.9, 150 mM KCl, 10 mM MgCl2, 0.075% Tween-80; 6.25-400 nM protein over immobilized biotinylated RNA; 20 mg/ml BSA block; conditions: protein: commercial; label: 3' biotin
Chain of TDP-43 (Q13148 whole entry): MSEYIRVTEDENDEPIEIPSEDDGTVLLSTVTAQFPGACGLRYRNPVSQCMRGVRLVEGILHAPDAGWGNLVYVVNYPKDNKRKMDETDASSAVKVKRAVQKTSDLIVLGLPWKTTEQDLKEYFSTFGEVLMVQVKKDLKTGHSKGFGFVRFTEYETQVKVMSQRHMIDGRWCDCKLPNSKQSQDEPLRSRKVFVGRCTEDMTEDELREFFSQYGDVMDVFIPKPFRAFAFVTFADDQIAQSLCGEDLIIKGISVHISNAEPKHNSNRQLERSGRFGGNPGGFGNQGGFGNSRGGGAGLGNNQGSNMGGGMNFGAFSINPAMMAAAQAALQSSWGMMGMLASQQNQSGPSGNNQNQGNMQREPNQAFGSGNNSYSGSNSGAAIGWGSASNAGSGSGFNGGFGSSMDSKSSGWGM

[4] = biological target: T2, hnRNP A1; test: SPR imaging; 1:2 biphasic fit, primary Kd; SPRi (IBIS MX-96): 10 mM HEPES/KOH pH 7.9, 150 mM KCl, 10 mM MgCl2, 0.075% Tween-80; 6.25-400 nM protein over immobilized biotinylated RNA; 20 mg/ml BSA block; conditions: protein: commercial; label: 3' biotin
[5] = biological target: T2, hnRNP A1; test: SPR imaging; 1:2 biphasic fit, primary Kd; text: increased binding vs WT (maximum 718 vs 131); SPRi (IBIS MX-96): 10 mM HEPES/KOH pH 7.9, 150 mM KCl, 10 mM MgCl2, 0.075% Tween-80; 6.25-400 nM protein over immobilized biotinylated RNA; 20 mg/ml BSA block; conditions: protein: commercial; label: 3' biotin
[6] = biological target: T2, hnRNP A1; test: SPR imaging; 1:2 biphasic fit, primary Kd; low Rmax 68.35; SPRi (IBIS MX-96): 10 mM HEPES/KOH pH 7.9, 150 mM KCl, 10 mM MgCl2, 0.075% Tween-80; 6.25-400 nM protein over immobilized biotinylated RNA; 20 mg/ml BSA block; conditions: protein: commercial; label: 3' biotin
[7] = biological target: T1, SRSF1; test: SPR imaging; Kd NA, Rmax 0, maximum 0; SPRi (IBIS MX-96): 10 mM HEPES/KOH pH 7.9, 150 mM KCl, 10 mM MgCl2, 0.075% Tween-80; 6.25-400 nM protein over immobilized biotinylated RNA; 20 mg/ml BSA block; conditions: protein: recombinant; label: 3' biotin
[8] = biological target: T2, hnRNP A1; test: SPR imaging; 1:2 biphasic fit, primary Kd; low Rmax 58.75; SPRi (IBIS MX-96): 10 mM HEPES/KOH pH 7.9, 150 mM KCl, 10 mM MgCl2, 0.075% Tween-80; 6.25-400 nM protein over immobilized biotinylated RNA; 20 mg/ml BSA block; conditions: protein: commercial; label: 3' biotin
[9] = biological target: T2, hnRNP A1; test: SPR imaging; 1:2 biphasic fit, primary Kd; fitted maximum higher than WT (60.5 vs 49.6); SPRi (IBIS MX-96): 10 mM HEPES/KOH pH 7.9, 150 mM KCl, 10 mM MgCl2, 0.075% Tween-80; 6.25-400 nM protein over immobilized biotinylated RNA; 20 mg/ml BSA block; conditions: protein: commercial; label: 3' biotin

Binder | Kd [1] [nM] | Kd [4] [nM] | other results
AGGGUUUUAGACAAA (ssRNA) [SMN2E7T] | 249000 |  | Kd [2]: 1040 nM
UGAUGUGUGUGAGUGUGUGUAAC (ssRNA) [ACADM exon 6 5'ss +7A>G 23 nt] |  |  | binding result [3]: binds
UGACCUCGAAACAGC (ssRNA) [ATMEX44 WT] | 60900 | 3890 | 
UCCCAGUUAGAGGCG (ssRNA) [PTENEX6 MUT] | 161000 | 1450 | 
AUUUUUGUAAGAGUG (ssRNA) [NF1EX30 MUT] | 248000 | 1080 | 
GGGAGAUAGAAUCAA (ssRNA) [ATP7AEX20 MUT] | 5090 |  | Kd [5]: 989 nM
GGGAGAUGGAAUCAA (ssRNA) [ATP7AEX20 WT] | 913 | 886 | 
AGGGUUUCAGACAAA (ssRNA) [SMN1E7C] | 302 | 733 | 
AUUUUUGGAAGAGUG (ssRNA) [NF1EX30 WT] | 168 | 632 | 
CAUUCUUUGACUAGC (ssRNA) [MLH1EX17 MUT] |  |  | Kd [6]: 118 nM; binding result [7]: no binding
CAUUCUUCGACUAGC (ssRNA) [MLH1EX17 WT] |  |  | Kd [8]: 32 nM; binding result [7]: no binding
UCCCAGUCAGAGGCG (ssRNA) [PTENEX6 WT] | 5800 | 1160 | 
UGACCUCAAAACAGC (ssRNA) [ATMEX44 MUT] | 10500 |  | Kd [9]: 211000 nM
